The target in test [1] is T1, human TIM-3 coupled to Fc (human, UniProt Q8TDQ0 22-200). The test is described as follows: SPR; crude periplasmic extract. In general terms: SPR reads the build-up and loss of mass on a sensor chip optically.
For test [2], the target named is T1, human TIM-3 coupled to Fc. The test is described as follows: SPR; culture supernatant.

B1: anti-TIM-3 antibody clone 1B9 (antibody, V domains shown)
VH: QVQLQQWGAGLLKPSETLSLTCAVYGGSFSGYYWSWIRQPPGKGLEWIGEINHSGSTNYNPSLKSRVTISVDTSKNQFSLKLSSVTAADTAVYYCARGYVAGSDAWGQGTLVTVSS
VL: QSVLTQPPSVSAAPGQKVTISCSGSSSNIGNNYVSWYQQLPGTAPKLLIYGNNWRPSGIPDRFSGSKSGTSATLGITGLQTGDEADYYCEAWDYYVAAGYFGGGTKLTVL
Regarding B1, the koff in test [1] turned out to be 2.8e-05 s⁻¹; in test [2] it was 4.3e-05 s⁻¹.

B2: anti-TIM-3 antibody clone 1H10 (antibody, V domains shown)
VH: QVQLQQWGAGLLKPSETLSLTCAVYGGSFSGYYWSWIRQPPGKGLEWIGEINHSGSTNYNPSLKSRVTISVDTSKNQFSLKLSSVTAADTAVYYCARGYVAGFDSWGQGTLVTVSS
VL: QSVLTQPPSVSAAPGQKVTISCSGSSSNIGNNYVSWYQQLPGTAPKLLIYGNNWRPSGIPDRFSGSKSGTSATLGITGLQTGDEADYYCDSWDYDYAAGVFGGGTKLTVL
With B2, the values for the koff in test [1] and in test [2] were 2.3e-05 s⁻¹ and 2.9e-05 s⁻¹, respectively.

B3: anti-TIM-3 antibody clone 2F4 (antibody, V domains shown)
VH: QVQLQQWGAGLLKPSETLSLTCAVYGGSFSGYYWSWIRQPPGKGLEWIGEINHSGSTNYNPSLKSRVTISVDTSKNQFSLKLSSVTAADTAVYYCARGYVAGSDAWGQGTLVTVSS
VL: QSVLTQPPSVSAAPGQKVTISCSGSSSNIGNNYVSWYQQLPGTAPKLLIYGNNWRPSGIPDRFSGSKSGTSATLGITGLQTGDEADYYCESWDYDYASGVFGGGTKLTVL
As to B3, the figures for the koff in test [1] and in test [2] were 0.00014 s⁻¹ and 8.7e-05 s⁻¹, respectively.

B4: anti-TIM-3 antibody clone 1D9 (antibody, V domains shown)
VH: QVQLQQWGAGLLKPSETLSLTCAVYGGSFSGYYWSWIRQPPGKGLEWIGEINHSGSTNYNPSLKSRVTISVDTSKNQFSLKLSSVTAADTAVYYCARGYYAGDDYWGQGTLVTVSS
VL: QSVLTQPPSVSAAPGQKVTISCSGSSSNIGNNYVSWYQQLPGTAPKLLIYGNNWRPSGIPDRFSGSKSGTSATLGITGLQTGDEADYYCEAWDSAYAAGSFGGGTKLTVL
Regarding B4, the koff in test [1] and in test [2] was 0.00018 s⁻¹ in each case.

B5: anti-TIM-3 antibody clone 2C7 (antibody, V domains shown)
VH: QVQLQQWGAGLLKPSETLSLTCAVYGGSFSGYYWSWIRQPPGKGLEWIGEINHSGSTNYNPSLKSRVTISVDTSKNQFSLKLSSVTAADTAVYYCARGYVAGYDYWGQGTLVTVSS
VL: QSVLTQPPSVSAAPGQKVTISCSGSSSNIGNNYVSWYQQLPGTAPKLLIYGNNWRPSGIPDRFSGSKSGTSATLGITGLQTGDEADYYCDSWDSYLAAGVFGGGTKLTVL
For the molecule B5, the figures for the koff in test [1] and in test [2] were 0.00019 s⁻¹ and 0.00021 s⁻¹, respectively.

B6: anti-TIM-3 antibody clone 2G6 (antibody, V domains shown)
VH: QVQLQQWGAGLLKPSETLSLTCAVYGGSFSGYYWSWIRQPPGKGLEWIGEINHSGSTNYNPSLKSRVTISVDTSKNQFSLKLSSVTAADTAVYYCARGYVAGFDSWGQGTLVTVSS
VL: QSVLTQPPSVSAAPGQKVTISCSGSSSNIGNNYVSWYQQLPGTAPKLLIYGNNWRPSGIPDRFSGSKSGTSATLGITGLQTGDEADYYCDSWDSSDSSGVFGGGTKLTVL
As to B6, the koff was 0.00022 s⁻¹ in test [1] and 0.00013 s⁻¹ in test [2].

B7: anti-TIM-3 antibody clone 1H9 (antibody, V domains shown)
VH: QVQLQQWGAGLLKPSETLSLTCAVYGGSFSGYYWSWIRQPPGKGLEWIGEINHSGSTNYNPSLKSRVTISVDTSKNQFSLKLSSVTAADTAVYYCARGYVAGFDDWGQGTLVTVSS
VL: QSVLTQPPSVSAAPGQKVTISCSGSSSNIGNNYVSWYQQLPGTAPKLLIYGNNWRPSGIPDRFSGSKSGTSATLGITGLQTGDEADYYCDSWDSADASGVFGGGTKLTVL
Regarding B7, the values for the koff in test [1] and in test [2] were 7e-05 s⁻¹ and 0.00016 s⁻¹, respectively.

B8: anti-TIM-3 antibody clone 1F4 (antibody, V domains shown)
VH: QVQLQQWGAGLLKPSETLSLTCAVYGGSFSGYYWSWIRQPPGKGLEWIGEINHSGSTNYNPSLKSRVTISVDTSKNQFSLKLSSVTAADTAVYYCARGYVAGYDYWGQGTLVTVSS
VL: QSVLTQPPSVSAAPGQKVTISCSGSSSNIGNNYVSWYQQLPGTAPKLLIYGNNWRPSGIPDRFSGSKSGTSATLGITGLQTGDEADYYCDSWDAALSAGVFGGGTKLTVL
With B8, the figures for the koff in test [1] and in test [2] were 0.00029 s⁻¹ and 0.0003 s⁻¹, respectively.

As usually defined, the koff is the first-order rate constant of dissociation. Higher therefore signals a short-lived complex.

The values are drawn from patent publication US20200055935A1 (published 2020).
